We go through two proteins from doi:10.1101/2025.11.04.686606, “The C-terminal intrinsically disordered region of a fungal LPMO binds copper and displays anti-fungal properties” (bioRxiv, 2025).

Series [1] concerns the molecule itself. In words: SEC-MALLS; Superdex200 10/300 GL Increase, 50 mM MES pH 6.5, 150 mM NaCl; protein conjugate analysis for glycans.
Series [2] concerns the molecule itself. In words: SAXS; P3 at 2 mg/mL; conformational ensembles from 1 us MD simulations refined against SAXS data (Bayesian maximum entropy).

B1: PcoAA14A_FL, full-length AA14A lytic polysaccharide monooxygenase from Pycnoporus coccineus (enzyme, UniProt A0A2I6QAZ5 22-428, looked up)
chain: HAAFWDKSMYGFNVTAQTFPYDNRPQVPLYNMTFDQWWFHGHKDYPPNEGDFFELPAGGEVNSIISCDKGATPFYESSPGGDSGYGSNSPCPGQPMSEYHTTGIDDVKGCCMAIAYKPDVNDVQPDDFVVFSCNSTCVWEMNTKFEIPKLPACPEGGCHCAWFWIHSYDSGAEQIYMNGFKCKVTGDVGTQPLGKPAVPRRCGADPDHGKPDPTPGNCTIGAKTPMYWYQREGNNMFEDTYDAPYYNPLYGFNDGAQNDIFMDGVIASLASSGTGSSPTSTVDSSSSAAAASTSYPAQPTSSTQDAPGSSAYPSSSSDSVNSPTTQPYPASSASSTSEAQTTPAAVPTSVATEASSSPIASTTVDEAVVSSSTVGSINPTRSCKPRPSGVAAQKKKRKHARHLHNAH
modifications: glycosylated (glycans 34% of the molar mass by SEC-MALLS)
notes: PcoAA14A, AA14 family LPMO of Pycnoporus coccineus (syn. Trametes coccinea), Genbank KY769369; catalytic domain followed by a dCTR of 137 residues; theoretical mass 46 kDa; Expressed from pPICZalphaA; source: Pichia pastoris SuperMan5, secreted, purified (HisTrap); not shown: His6, C-terminal, kept
By stoichiometry N is commonly meant a count of units in the complex or per binding partner. With B1, the “stoichiometry N” value in series [1] is 2.

B2: P3 peptide, last 25 residues of PcoAA14A_dCTR (peptide, UniProt A0A2I6QAZ5 404-428, looked up)
peptide: CKPRPSGVAAQKKKRKHARHLHNAH
notes: the last 25 residues of PcoAA14A of Pycnoporus coccineus, starting with a Cys corresponding to Cys404; Unlabelled peptide in EPR and SAXS; the 5-FAM labelled form was used only on fungal spores; source: synthetic peptide, bought: GenScript
For B2, the “stoichiometry N” value in series [2] is 2.
